Measurements from patent publication US20220056104A1 (Janssen / Centocor, published 2022).
Numbering of substitutions follows the chain as printed. Numbers in names are those of the source.

T1: DcR3 (UniProt O95407 30-300, limits assumed)
T1 construct: the construct is not described; also called decoy receptor DcR3; TNFRSF6B
T1 sequence (looked up): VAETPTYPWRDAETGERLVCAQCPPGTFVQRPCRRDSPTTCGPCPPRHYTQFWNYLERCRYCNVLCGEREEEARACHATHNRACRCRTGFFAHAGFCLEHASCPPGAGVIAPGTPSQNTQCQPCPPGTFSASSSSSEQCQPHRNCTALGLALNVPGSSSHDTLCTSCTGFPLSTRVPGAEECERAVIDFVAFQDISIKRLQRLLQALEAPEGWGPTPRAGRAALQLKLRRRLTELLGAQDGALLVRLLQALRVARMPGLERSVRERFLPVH

T2: Recombinant DR3-Fc (R&D Systems, cat. #943-D3) (UniProt Q93038 25-199, limits assumed)
T2 construct: dimeric MW~92 kDa; also called DR3 receptor; Fc-DR3; not shown: Fc part of the bought fusion
T2 sequence (looked up): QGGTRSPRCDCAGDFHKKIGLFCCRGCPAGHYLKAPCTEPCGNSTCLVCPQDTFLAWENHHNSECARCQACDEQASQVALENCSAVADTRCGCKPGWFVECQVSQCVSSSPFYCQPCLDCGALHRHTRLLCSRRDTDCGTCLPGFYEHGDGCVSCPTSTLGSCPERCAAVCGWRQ

B1: TL1W38 (His-TEV-TL1A L123K) (ligand)
chain: HHHHHHENLYFQGLKGQEFAPSHQQVYAPLRADGDKPRAHLTVVRQTPTQHFKNQFPALHWEHEKGLAFTKNRMNYTNKFLLIPESGDYFIYSQVTFRGMTSECSEIRQAGRPNKPDSITVVITKVTDSYPEPTQLLMGTKSVCEVGSNWFQPIYLGAMFSLQEGDKLMVNVSDISLVDYTKEDKTFFGAFLL
notes: also called TL1W38 (L123K)
B2: TL1W136 (His-TEV-TL1A K240F) (ligand)
chain: B1 chain with K65L, K182F
notes: also called TL1W136 (K240F)
B3: TL1W119 (His-TEV-TL1A S206F) (ligand)
chain: B1 chain with K65L, S148F
notes: also called TL1W119 (S206F)
B4: TL1W111 (His-TEV-TL1A S187D) (ligand)
chain: B1 chain with K65L, S129D
notes: also called TL1W111 (S187D)
B5: TL1W126 (His-TEV-TL1A F209W) (ligand)
chain: B1 chain with K65L, F151W
notes: also called TL1W126 (F209W)
B6: TL1W110 (His-TEV-TL1A S187K) (ligand)
chain: B1 chain with K65L, S129K
notes: also called TL1W110 (S187K)
B7: TL1W95 (His-TEV-TL1A Q167A) (ligand)
chain: B1 chain with K65L, Q109A
notes: also called TL1W95 (Q167A)
B8: TL1W107 (His-TEV-TL1A D186Y) (ligand)
chain: B1 chain with K65L, D128Y
notes: also called TL1W107 (D186Y)
B9: TL1W137 (His-TEV-TL1A K240S) (ligand)
chain: B1 chain with K65L, K182S
notes: also called TL1W137 (K240S)
B10: TL1W112 (His-TEV-TL1A P189F) (ligand)
chain: B1 chain with K65L, P131F
notes: also called TL1W112 (P189F)
B11: TL1W122 (His-TEV-TL1A N207F) (ligand)
chain: B1 chain with K65L, N149F
notes: also called TL1W122 (N207F)
B12: TL1W80 (His-TEV-TL1A K111A) (ligand)
chain: B1 chain with K53A, K65L
notes: also called TL1W80 (K111A)
B13: TL1W125 (His-TEV-TL1A N207E) (ligand)
chain: B1 chain with K65L, N149E
notes: also called TL1W125 (N207E)
B14: TL1W131 (His-TEV-TL1A Y238E) (ligand)
chain: B1 chain with K65L, Y180E
notes: also called TL1W131 (Y238E)
B15: TL1W114 (His-TEV-TL1A T192A) (ligand)
chain: B1 chain with K65L, T134A
notes: also called TL1W114 (T192A)
B16: TL1W129 (His-TEV-TL1A Y238K) (ligand)
chain: B1 chain with K65L, Y180K
notes: also called TL1W129 (Y238K)
B17: TL1W121 (His-TEV-TL1A S206E) (ligand)
chain: B1 chain with K65L, S148E
notes: also called TL1W121 (S206E)
B18: TL1W113 (His-TEV-TL1A P189S) (ligand)
chain: B1 chain with K65L, P131S
notes: also called TL1W113 (P189S)
B19: TL1W115 (His-TEV-TL1A T192F) (ligand)
chain: B1 chain with K65L, T134F
notes: also called TL1W115 (T192F)
B20: TL1W116 (His-TEV-TL1A T192K) (ligand)
chain: B1 chain with K65L, T134K
notes: also called TL1W116 (T192K)
B21: TL1W132 (His-TEV-TL1A T239A) (ligand)
chain: B1 chain with K65L, T181A
notes: also called TL1W132 (T239A)
B22: TL1W123 (His-TEV-TL1A N207S) (ligand)
chain: B1 chain with K65L, N149S
notes: also called TL1W123 (N207S)
B23: TL1W120 (His-TEV-TL1A S206K) (ligand)
chain: B1 chain with K65L, S148K
notes: also called TL1W120 (S206K)
B24: TL1W127 (His-TEV-TL1A Y238A) (ligand)
chain: B1 chain with K65L, Y180A
notes: also called TL1W127 (Y238A)
B25: TL1W109 (His-TEV-TL1A S187L) (ligand)
chain: B1 chain with K65L, S129L
notes: also called TL1W109 (S187L)
B26: TL1W118 (His-TEV-TL1A S206A) (ligand)
chain: B1 chain with K65L, S148A
notes: also called TL1W118 (S206A)
B27: TL1W117 (His-TEV-TL1A T192E) (ligand)
chain: B1 chain with K65L, T134E
notes: also called TL1W117 (T192E)
B28: TL1W92 (His-TEV-TL1A M158Y) (ligand)
chain: B1 chain with K65L, M100Y
notes: also called TL1W92 (M158Y)
B29: TL1W124 (His-TEV-TL1A N207K) (ligand)
chain: B1 chain with K65L, N149K
notes: also called TL1W124 (N207K)
B30: TL1W45 (His-TEV-TL1A E190F) (ligand)
chain: B1 chain with K65L, E132F
notes: also called TL1W45 (E190F)

What follows are binders tested against T1, DcR3 (assay: ELISA, DcR3).

| EC50 [nM] | Rel EC50 | Binder |
| --- | --- | --- |
| 24.7 | 5.4 ratio (head: nM) | B1 |
| 178 | 38.7 ratio (head: nM) | B2 |
| 8.1 | 1.8 ratio (head: nM) | B3 |
| 16.7 | 3.6 ratio (head: nM) | B4 |
| 13.7 | 3 ratio (head: nM) | B5 |
| 15.8 | 3.4 ratio (head: nM) | B6 |
| 32 | 7 ratio (head: nM) | B7 |
| 6.2 | 1.4 ratio (head: nM) | B8 |
| 11.8 | 2.6 ratio (head: nM) | B9 |
| 66.1 | 14.4 ratio (head: nM) | B10 |
| 10.6 | 2.3 ratio (head: nM) | B11 |
| 16.3 | 3.5 ratio (head: nM) | B12 |
| 9.8 | 2.1 ratio (head: nM) | B13 |
| 6.6 | 1.4 ratio (head: nM) | B14 |
| 10 | 2.2 ratio (head: nM) | B15 |
| 9 | 2 ratio (head: nM) | B16 |
| 17.2 | 3.7 ratio (head: nM) | B17 |
| 19.8 | 4.3 ratio (head: nM) | B18 |
| 10.6 | 2.3 ratio (head: nM) | B19 |
| 23.3 | 5.1 ratio (head: nM) | B20 |
| 27.2 | 5.9 ratio (head: nM) | B21 |
| 8.6 | 1.9 ratio (head: nM) | B22 |
| 91 | 19.8 ratio (head: nM) | B23 |
| 8.9 | 1.9 ratio (head: nM) | B24 |
| 15.5 | 3.4 ratio (head: nM) | B25 |
| 8.8 | 1.9 ratio (head: nM) | B26 |
| 12 | 2.6 ratio (head: nM) | B27 |
| 12.6 | 2.7 ratio (head: nM) | B28 |
| 15.4 | 3.4 ratio (head: nM) | B29 |

Target: T1, DcR3
Test: ELISA, DcR3
Remark: another data set of the same source

| EC50 [nM] | Binder |
| --- | --- |
| 24.7 | B1 |
| 176 | B7 |
| 21.2 | B30 |
| 58.5 | B11 |
| 89.8 | B12 |
| 85.5 | B25 |
| 69.2 | B28 |

What follows are binders tested against T2, Recombinant DR3-Fc (R&D Systems, cat. …) (assay: ELISA, DR3-Fc immobilized).
Procedure, shortened: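 DR3-Fc (10 μg/mL) was coated overnight at 4 °C, blocked with casein, then incubated overnight at 4 °C with TL1A variants from 25 μg/mL in 3-fold dilutions. Bound TL1A was detected with biotinylated rabbit anti-human TL1A and streptavidin-HRP, read by chemiluminescence; triplicates, errors as standard error.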

| EC50 [nM] | Rel EC50 | Binder |
| --- | --- | --- |
| 29.5 | 1.1 ratio (head: nM) | B1 |
| 266 | 10.1 ratio (head: nM) | B2 |
| 87.5 | 3.3 ratio (head: nM) | B3 |
| 44.2 | 1.7 ratio (head: nM) | B4 |
| 56.8 | 2.2 ratio (head: nM) | B5 |
| 33.7 | 1.3 ratio (head: nM) | B6 |
| 17.1 | 0.7 ratio (head: nM) | B7 |
| 63.8 | 2.4 ratio (head: nM) | B8 |
| 31.4 | 1.2 ratio (head: nM) | B30 |
| 336 | 12.8 ratio (head: nM) | B9 |
| 202 | 7.7 ratio (head: nM) | B10 |
| 30.2 | 1.2 ratio (head: nM) | B11 |
| 30 | 1.1 ratio (head: nM) | B12 |
| 506 | 19.3 ratio (head: nM) | B13 |
| 300 | 11.5 ratio (head: nM) | B14 |
| 23.3 | 0.9 ratio (head: nM) | B15 |
| 446 | 17 ratio (head: nM) | B16 |
| 105 | 4 ratio (head: nM) | B17 |
| 1000 | 38.2 ratio (head: nM) | B18 |
| 14.2 | 0.5 ratio (head: nM) | B19 |
| 77 | 2.9 ratio (head: nM) | B20 |
| 144 | 5.5 ratio (head: nM) | B21 |
| 26.8 | 1 ratio (head: nM) | B22 |
| 114 | 4.4 ratio (head: nM) | B23 |
| 4620 | 176 ratio (head: nM) | B24 |
| 17.7 | 0.7 ratio (head: nM) | B25 |
| 41.7 | 1.6 ratio (head: nM) | B26 |
| 113 | 4.3 ratio (head: nM) | B27 |
| 16.6 | 0.6 ratio (head: nM) | B28 |
| 110 | 4.2 ratio (head: nM) | B29 |

Target: T2, Recombinant DR3-Fc (R&D Systems, cat. …)
Test: ELISA, DR3-Fc immobilized
Remark: another data set of the same source
Description: All ELISA-based measurements were collected in triplicate, and error values report the standard error between measurements. Recombinant DR3-Fc (R&D Systems, cat. #943-D3), dimeric MW˜92 kDa, was non-specifically immobilized onto plates (Nunc maxisorp, cat. #436110) in 100 μL DR3-Fc, diluted to 10 μg/mL onto a 96-well White Maxisorp plate (Nunc, cat #436110) (O/N, 4° C.). Plates were block for 1 hour at room temperature with 250 μl/well of casein buffer and blocking buffer was removed. 50 μL of TL1A variants were diluted in StartingBlock PBS (Thermo Fisher Scientific), at 25 μg/mL, diluting 3× over each well, according to the plate map description for 20160623) per well on a 96-well White Maxisorp plate (Nunc, cat #: 436110) (overnight at 4° C.).
Plates were washed three times with TBST. 100 μl/well polyclonal rabbit anti-human TL1A-biotin antibody (diluted 1:1000 in Starting Block PBS) was added and plates were incubated for 1 hour at room temperature with shaking at 150 rpm. TL1A-biotin antibody was removed and 100 μl/well streptavidin-HRP conjugate (diluted 1:10,000 in Starting Block PBS) was added to plates. Plates were incubated for 1 hour at room temperature with shaking at 150 rpm. Plates were washed three times with TBST. 100 μl/well POD Chemiluminescence substrate (Roche, cat #: 11582950001) was added immediately prior to reading plate luminescence using a Molecular Devices M5 plate reader with a delay setting of 100 ms.
These combination mutants were tested for binding to DR3 and DcR3 (FIGS. 5E and 5F, respectively).

| EC50 [nM] | Rel EC50 [ratio] | Binder |
| --- | --- | --- |
| 29.4 | 1.1 | B1 |
| 17.1 | 0.7 | B7 |
| 31.4 | 1.2 | B30 |
| 30.2 | 1.2 | B11 |
| 30 | 1.1 | B12 |
| 17.7 | 0.7 | B25 |
| 16.6 | 0.6 | B28 |
